# Laboratory results published in patent US20240277805A1.
# T1: myostatin (UniProt O14793)
# T1 sequence (looked up): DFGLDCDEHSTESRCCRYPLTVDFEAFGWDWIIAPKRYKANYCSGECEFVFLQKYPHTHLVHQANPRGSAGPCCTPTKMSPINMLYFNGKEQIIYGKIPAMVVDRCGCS
# B1: STM 434 (svActRIIB-Fc (E28W, S44T) polypeptide without signal sequence) (Fc fusion)
# chain: ETRWCIYYNANWELERTNQTGLERCEGEQDKRLHCYASWRNSSGTIELVKKGCWLDDFNCYDRQECVATEENPQVYFCCCEGNFCNERFTHLPEAGGPEVTYEPPPTAPTGGGGSVECPPCPAPPVAGPSVFLFPPKPKDTLMISRTPEVTCVVVDVSHEDPEVQFNWYVDGVEVHNAKTKPREEQFNSTFRVVSVLTVVHQDWLNGKEYKCKVSNKGLPAPIEKTISKTKGQPREPQVYTLPPSREEMTKNQVSLTCLVKGFYPSDIAVEWESNGQPENNYKTTPPMLDSDGSFFLYSKLTVDKSRWQQGNVFSCSVMHEALHNHYTQKSLSLSPGK
# Biological target: T1, myostatin
# Assay: cell-based or functional assay
binder,measurement,value
B1,"Bioassay % relative potency; lot 0010036965, 5° C. upright, 0 months (% relative potency)",100
same,"Bioassay % relative potency; lot 0010036965, 5° C. upright, 0.5 months (% relative potency)",99
same,"Bioassay % relative potency; lot 0010036965, 5° C. upright, 1 month (% relative potency)",100
same,"Bioassay % relative potency; lot 0010036965, 5° C. upright, 3 months (% relative potency)",104
same,"Bioassay % relative potency; lot 0010036965, 5° C. upright, 6 months (% relative potency)",94
same,"Bioassay % relative potency; lot 0010036965, 25° C. upright, 0 months (% relative potency)",100
same,"Bioassay % relative potency; lot 0010036965, 25° C. upright, 0.25 months (% relative potency)",97
same,"Bioassay % relative potency; lot 0010036965, -20° C. upright, 0 months (% relative potency)",100
same,"Bioassay % relative potency; lot 0010036965, -20° C. upright, 1 month (% relative potency)",100
same,"Bioassay % relative potency; lot 0010036965, -20° C. upright, 3 months (% relative potency)",102
same,"Bioassay % relative potency; lot 0010036965, -20° C. upright, 6 months (% relative potency)",95
same,"Bioassay % relative potency; lot 0010036965, -20° C. upright, 9 months (% relative potency)",103
same,"Bioassay % relative potency; lot 0010036965, -20° C. upright, 12 months (% relative potency)",102
same,"Bioassay % relative potency; lot 0010036965, -20° C. upright, 18 months (% relative potency)",102
same,"Bioassay % relative potency; lot 0010036965, -20° C. upright, 24 months (% relative potency)",99
same,"Bioassay % relative potency; lot 0010036965, -20° C. upright, 30 months (% relative potency)",102
same,"Bioassay % relative potency; lot 0010036965, -70° C. upright, 0 months (% relative potency)",100
same,"Bioassay % relative potency; lot 0010036965, -70° C. upright, 12 months (% relative potency)",100
same,"Bioassay % relative potency; lot 0010036965, -70° C. upright, 24 months (% relative potency)",100
same,"Bioassay % relative potency; lot 0010036965, T = 0 of the 5 × freeze/thaw study (% relative potency)",100
same,"Bioassay % relative potency; lot 0010036965, after 5 × F/T (% relative potency)",100
same,"Bioassay % relative potency; lot EG-13-0150, 2-8° C. upright, 0 months (% relative potency)",99
same,"Bioassay % relative potency; lot EG-13-0150, 2-8° C. upright, 1 month (% relative potency)",93.2
same,"Bioassay % relative potency; lot EG-13-0150, 2-8° C. upright, 3 months (% relative potency)",99.7
same,"Bioassay % relative potency; lot EG-13-0150, 2-8° C. upright, 6 months (% relative potency)",114
same,"Bioassay % relative potency; lot EG-13-0150, 2-8° C. upright, 9 months (% relative potency)",103
same,"Bioassay % relative potency; lot EG-13-0150, 2-8° C. upright, 12 months (% relative potency)",106
same,"Bioassay % relative potency; lot EG-13-0150, 25° C. upright, 0 months (% relative potency)",99
same,"Bioassay % relative potency; lot EG-13-0150, 25° C. upright, 1 month (% relative potency)",86.9
same,"Bioassay % relative potency; lot EG-13-0150, -20° C. upright, 0 months (% relative potency)",99
same,"Bioassay % relative potency; lot EG-13-0150, -20° C. upright, 1 month (% relative potency)",93.2
same,"Bioassay % relative potency; lot EG-13-0150, -20° C. upright, 3 months (% relative potency)",94.4
same,"Bioassay % relative potency; lot EG-13-0150, -20° C. upright, 6 months (% relative potency)",110
same,"Bioassay % relative potency; lot EG-13-0150, -20° C. upright, 9 months (% relative potency)",99.3
same,"Bioassay % relative potency; lot EG-13-0150, -20° C. upright, 12 months (% relative potency)",105
same,"Bioassay % relative potency; lot EG-13-0150, T = 0 of the 5 × freeze/thaw study (% relative potency)",99
same,"Bioassay % relative potency; lot EG-13-0150, after 5 × F/T (% relative potency)",96
same,"Bioassay % relative potency; lot FG-13-0230, 2-8° C. upright, 0 months (% relative potency)",99
same,"Bioassay % relative potency; lot FG-13-0230, 2-8° C. upright, 1 month (% relative potency)",116
same,"Bioassay % relative potency; lot FG-13-0230, 2-8° C. upright, 3 months (% relative potency)",108
same,"Bioassay % relative potency; lot FG-13-0230, 2-8° C. upright, 6 months (% relative potency)",93
same,"Bioassay % relative potency; lot FG-13-0230, 2-8° C. upright, 9 months (% relative potency)",116
same,"Bioassay % relative potency; lot FG-13-0230, 2-8° C. upright, 12 months (% relative potency)",121
same,"Bioassay % relative potency; lot FG-13-0230, 25° C. upright, 0 months (% relative potency)",99
same,"Bioassay % relative potency; lot FG-13-0230, 25° C. upright, 1 month (% relative potency)",116
same,"Bioassay % relative potency; lot FG-13-0230, -20° C. upright, 0 months (% relative potency)",99
same,"Bioassay % relative potency; lot FG-13-0230, -20° C. upright, 1 month (% relative potency)",100
same,"Bioassay % relative potency; lot FG-13-0230, -20° C. upright, 3 months (% relative potency)",115
same,"Bioassay % relative potency; lot FG-13-0230, -20° C. upright, 6 months (% relative potency)",96
same,"Bioassay % relative potency; lot FG-13-0230, -20° C. upright, 9 months (% relative potency)",94
same,"Bioassay % relative potency; lot FG-13-0230, -20° C. upright, 12 months (% relative potency)",106
same,"Bioassay % relative potency; lot FG-13-0230, -70° C. upright, 0 months (% relative potency)",99
same,"Bioassay % relative potency; lot FG-13-0230, -70° C. upright, 1 month (% relative potency)",115
same,"Bioassay % relative potency; lot FG-13-0230, -70° C. upright, 3 months (% relative potency)",107
same,"Bioassay % relative potency; lot FG-14-0056, 2-8° C. upright, 0 months (% relative potency)",99
same,"Bioassay % relative potency; lot FG-14-0056, 2-8° C. upright, 1 month (% relative potency)",102
same,"Bioassay % relative potency; lot FG-14-0056, 25° C. upright, 0 months (% relative potency)",99
same,"Bioassay % relative potency; lot FG-14-0056, 25° C. upright, 1 month (% relative potency)",122
same,"Bioassay % relative potency; lot FG-14-0056, -20° C. by the title (condition line prints 2-8° C.), 0 months (% relative potency)",99
same,"Bioassay % relative potency; lot FG-14-0056, -20° C. by the title (condition line prints 2-8° C.), 1 month (% relative potency)",117
same,"Bioassay % relative potency; lot FG-14-0109, 2-8° C. inverted, 0 months (% relative potency)",98
same,"Bioassay % relative potency; lot FG-14-0109, 2-8° C. inverted, 3 months (% relative potency)",96
same,"Bioassay % relative potency; lot FG-14-0109, 2-8° C. inverted, 6 months (% relative potency)",112
same,"Bioassay % relative potency; lot FG-14-0109, 2-8° C. upright, 0 months (% relative potency)",98
same,"Bioassay % relative potency; lot FG-14-0109, 2-8° C. upright, 3 months (% relative potency)",92
same,"Bioassay % relative potency; lot FG-14-0109, 2-8° C. upright, 6 months (% relative potency)",107
same,"Bioassay % relative potency; lot FG-14-0109, 25° C. inverted, 0 months (% relative potency)",98
same,"Bioassay % relative potency; lot FG-14-0109, 25° C. inverted, 3 months (% relative potency)",94
same,"Bioassay % relative potency; lot FG-14-0109, 25° C. inverted, 6 months (% relative potency)",98
same,"Bioassay % relative potency; lot FG-14-0109, 25° C. upright, 0 months (% relative potency)",98
same,"Bioassay % relative potency; lot FG-14-0109, 25° C. upright, 3 months (% relative potency)",91
same,"Bioassay % relative potency; lot FG-14-0109, 25° C. upright, 6 months (% relative potency)",105
same,"Bioassay % relative potency; lot FG-14-0109, -20° C. upright, 0 months (% relative potency)",98
same,"Bioassay % relative potency; lot FG-14-0109, -20° C. upright, 3 months (% relative potency)",96
same,"Bioassay % relative potency; lot FG-14-0109, -20° C. upright, 6 months (% relative potency)",101
same,"Cell Based Bioassay, Relative Potency; DP lot 0010036965, 5° C., 54 months (% relative potency)",87
same,"Cell Based Bioassay, Relative Potency; DP lot 0010036965, -20° C., 54 months (% relative potency)",99
same,"Cell Based Bioassay, Relative Potency; DP lot 0010036965, -70° C., 54 months (% relative potency)",111
same,"Cell Based Bioassay, Relative Potency; DS lot 0010035106, 5° C., 54 months (% relative potency)",101
same,"Cell Based Bioassay, Relative Potency; DS lot 0010035106, -70° C., 54 months (% relative potency)",99
